In patent US20140087995A1 (published 2014):
Numbered stars: 1 amine (or outer) side, 2 acyl side, 3 side chain; on linkers, the order of the positions; unused ones are H or OH. Bridge positions count the residues as written; N and C are the ends. Side chains are listed from the residue outwards. Ends that are not written are not given here. * marks the point of attachment. C20 diacid = O=C(O)CCCCCCCCCCCCCCCCCCC(=O)*; γGlu = O=C(O)[C@H](CCC(=O)[*:2])N[*:1]; AEEA = NCCOCCOCC(=O)O

T1: human amylin 3(a) receptor (human calcitonin receptor co-expressed with RAMP-3) (human, UniProt P30988 25-474; O60896 24-148, limits assumed)
T1 sequence (looked up) 1: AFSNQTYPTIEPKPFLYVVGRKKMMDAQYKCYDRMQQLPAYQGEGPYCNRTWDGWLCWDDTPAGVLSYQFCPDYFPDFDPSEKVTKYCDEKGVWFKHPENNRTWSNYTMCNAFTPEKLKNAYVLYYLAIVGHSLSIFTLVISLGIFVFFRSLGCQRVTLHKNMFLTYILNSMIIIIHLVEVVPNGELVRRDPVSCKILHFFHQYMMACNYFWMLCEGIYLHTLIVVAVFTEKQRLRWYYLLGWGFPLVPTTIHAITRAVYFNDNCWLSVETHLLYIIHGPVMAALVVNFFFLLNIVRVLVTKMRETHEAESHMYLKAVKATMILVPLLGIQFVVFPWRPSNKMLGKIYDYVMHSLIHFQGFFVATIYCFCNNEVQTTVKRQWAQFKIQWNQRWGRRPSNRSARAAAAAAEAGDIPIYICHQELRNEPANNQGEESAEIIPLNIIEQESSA
T1 sequence (looked up) 2: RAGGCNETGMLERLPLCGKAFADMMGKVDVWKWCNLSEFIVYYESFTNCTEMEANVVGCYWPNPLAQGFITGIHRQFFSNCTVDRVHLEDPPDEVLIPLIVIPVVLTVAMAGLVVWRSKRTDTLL

T2: human calcitonin receptor (human, UniProt P30988 25-474)
T2 sequence (looked up): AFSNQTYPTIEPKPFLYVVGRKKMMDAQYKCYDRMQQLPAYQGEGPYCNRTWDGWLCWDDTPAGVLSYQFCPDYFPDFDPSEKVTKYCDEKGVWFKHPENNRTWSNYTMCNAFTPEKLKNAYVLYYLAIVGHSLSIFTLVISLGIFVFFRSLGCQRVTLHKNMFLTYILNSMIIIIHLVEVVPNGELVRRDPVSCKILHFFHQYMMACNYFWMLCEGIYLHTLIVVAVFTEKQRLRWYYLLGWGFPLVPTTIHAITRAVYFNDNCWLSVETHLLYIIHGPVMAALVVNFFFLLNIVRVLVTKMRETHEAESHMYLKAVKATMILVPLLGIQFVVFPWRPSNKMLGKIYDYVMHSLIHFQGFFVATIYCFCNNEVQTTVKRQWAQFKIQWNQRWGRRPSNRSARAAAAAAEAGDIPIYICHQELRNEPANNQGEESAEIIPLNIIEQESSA


Tests used:
[1] = target: T1, human amylin 3(a) receptor (human …); assay: cell-based or functional assay
[2] = target: T2, human calcitonin receptor; assay: cell-based or functional assay

Row | hAmylin-R funct. EC50 [1] | Ratio hCT/hAmylin funct. [2] | hCTR funct. EC50 [2] | Binder
1 | 651 pM | 33 | 21.5 nM | K([AEEA-AEEA-γGlu-C20 diacid])CNTATCATQRLANFLRHSSPNFGAIPSSTNVGRNTY-NH2 (disulfide 2-7; N-terminus assumed; SMILES CC[C@H](C)[C@H](NC(=O)[C@H](C)NC(=O)CNC(=O)[C@H](Cc1ccccc1)NC(=O)[C@H](CC(N)=O)NC(=O)[C@@H]1CCCN1C(=O)[C@H](CO)NC(=O)[C@H](CO)NC(=O)[C@H](Cc1c[nH]cn1)NC(=O)[C@H](CCCNC(=N)N)NC(=O)[C@H](CC(C)C)NC(=O)[C@H](Cc1ccccc1)NC(=O)[C@H](CC(N)=O)NC(=O)[C@H](C)NC(=O)[C@H](CC(C)C)NC(=O)[C@H](CCCNC(=N)N)NC(=O)[C@H](CCC(N)=O)NC(=O)[C@@H](NC(=O)[C@H](C)NC(=O)[C@@H]1CSSC[C@H](NC(=O)[C@@H](N)CCCCNC(=O)COCCOCCNC(=O)COCCOCCNC(=O)CC[C@H](NC(=O)CCCCCCCCCCCCCCCCCCC(=O)O)C(=O)O)C(=O)N[C@@H](CC(N)=O)C(=O)N[C@@H]([C@@H](C)O)C(=O)N[C@@H](C)C(=O)N[C@@H]([C@@H](C)O)C(=O)N1)[C@@H](C)O)C(=O)N1CCC[C@H]1C(=O)N[C@@H](CO)C(=O)N[C@@H](CO)C(=O)N[C@H](C(=O)N[C@@H](CC(N)=O)C(=O)N[C@H](C(=O)NCC(=O)N[C@@H](CCCNC(=N)N)C(=O)N[C@@H](CC(N)=O)C(=O)N[C@H](C(=O)N[C@@H](Cc1ccc(O)cc1)C(N)=O)[C@@H](C)O)C(C)C)[C@@H](C)O, also called compound 95)
2 | 169 pM | 32.5 | 5.49 nM | K([AEEA-γGlu-C20 diacid])CNTATCATQRLAHFLRHSSPNFGAIPSSTNVGRNTY-NH2 (disulfide 2-7; N-terminus assumed; SMILES CC[C@H](C)[C@H](NC(=O)[C@H](C)NC(=O)CNC(=O)[C@H](Cc1ccccc1)NC(=O)[C@H](CC(N)=O)NC(=O)[C@@H]1CCCN1C(=O)[C@H](CO)NC(=O)[C@H](CO)NC(=O)[C@H](Cc1c[nH]cn1)NC(=O)[C@H](CCCNC(=N)N)NC(=O)[C@H](CC(C)C)NC(=O)[C@H](Cc1ccccc1)NC(=O)[C@H](Cc1c[nH]cn1)NC(=O)[C@H](C)NC(=O)[C@H](CC(C)C)NC(=O)[C@H](CCCNC(=N)N)NC(=O)[C@H](CCC(N)=O)NC(=O)[C@@H](NC(=O)[C@H](C)NC(=O)[C@@H]1CSSC[C@H](NC(=O)[C@@H](N)CCCCNC(=O)COCCOCCNC(=O)CC[C@H](NC(=O)CCCCCCCCCCCCCCCCCCC(=O)O)C(=O)O)C(=O)N[C@@H](CC(N)=O)C(=O)N[C@@H]([C@@H](C)O)C(=O)N[C@@H](C)C(=O)N[C@@H]([C@@H](C)O)C(=O)N1)[C@@H](C)O)C(=O)N1CCC[C@H]1C(=O)N[C@@H](CO)C(=O)N[C@@H](CO)C(=O)N[C@H](C(=O)N[C@@H](CC(N)=O)C(=O)N[C@H](C(=O)NCC(=O)N[C@@H](CCCNC(=N)N)C(=O)N[C@@H](CC(N)=O)C(=O)N[C@H](C(=O)N[C@@H](Cc1ccc(O)cc1)C(N)=O)[C@@H](C)O)C(C)C)[C@@H](C)O, also called compound 84)
3 | 181 pM | 21 | 3.8 nM | K([AEEA-AEEA-γGlu-C20 diacid])CNTATCATQRLANFLRHSSPNFGAIPSSTPVGSNTY-NH2 (disulfide 2-7; N-terminus assumed; SMILES CC[C@H](C)[C@H](NC(=O)[C@H](C)NC(=O)CNC(=O)[C@H](Cc1ccccc1)NC(=O)[C@H](CC(N)=O)NC(=O)[C@@H]1CCCN1C(=O)[C@H](CO)NC(=O)[C@H](CO)NC(=O)[C@H](Cc1c[nH]cn1)NC(=O)[C@H](CCCNC(=N)N)NC(=O)[C@H](CC(C)C)NC(=O)[C@H](Cc1ccccc1)NC(=O)[C@H](CC(N)=O)NC(=O)[C@H](C)NC(=O)[C@H](CC(C)C)NC(=O)[C@H](CCCNC(=N)N)NC(=O)[C@H](CCC(N)=O)NC(=O)[C@@H](NC(=O)[C@H](C)NC(=O)[C@@H]1CSSC[C@H](NC(=O)[C@@H](N)CCCCNC(=O)COCCOCCNC(=O)COCCOCCNC(=O)CC[C@H](NC(=O)CCCCCCCCCCCCCCCCCCC(=O)O)C(=O)O)C(=O)N[C@@H](CC(N)=O)C(=O)N[C@@H]([C@@H](C)O)C(=O)N[C@@H](C)C(=O)N[C@@H]([C@@H](C)O)C(=O)N1)[C@@H](C)O)C(=O)N1CCC[C@H]1C(=O)N[C@@H](CO)C(=O)N[C@@H](CO)C(=O)N[C@H](C(=O)N1CCC[C@H]1C(=O)N[C@H](C(=O)NCC(=O)N[C@@H](CO)C(=O)N[C@@H](CC(N)=O)C(=O)N[C@H](C(=O)N[C@@H](Cc1ccc(O)cc1)C(N)=O)[C@@H](C)O)C(C)C)[C@@H](C)O, also called compound 96)
4 | 84 pM | 19.5 | 1.63 nM | K([AEEA-AEEA-γGlu-C20 diacid])CNTATCATQRLANFLRHSSPNFGAIPSSTNVGPNTY-NH2 (disulfide 2-7; N-terminus assumed; SMILES CC[C@H](C)[C@H](NC(=O)[C@H](C)NC(=O)CNC(=O)[C@H](Cc1ccccc1)NC(=O)[C@H](CC(N)=O)NC(=O)[C@@H]1CCCN1C(=O)[C@H](CO)NC(=O)[C@H](CO)NC(=O)[C@H](Cc1c[nH]cn1)NC(=O)[C@H](CCCNC(=N)N)NC(=O)[C@H](CC(C)C)NC(=O)[C@H](Cc1ccccc1)NC(=O)[C@H](CC(N)=O)NC(=O)[C@H](C)NC(=O)[C@H](CC(C)C)NC(=O)[C@H](CCCNC(=N)N)NC(=O)[C@H](CCC(N)=O)NC(=O)[C@@H](NC(=O)[C@H](C)NC(=O)[C@@H]1CSSC[C@H](NC(=O)[C@@H](N)CCCCNC(=O)COCCOCCNC(=O)COCCOCCNC(=O)CC[C@H](NC(=O)CCCCCCCCCCCCCCCCCCC(=O)O)C(=O)O)C(=O)N[C@@H](CC(N)=O)C(=O)N[C@@H]([C@@H](C)O)C(=O)N[C@@H](C)C(=O)N[C@@H]([C@@H](C)O)C(=O)N1)[C@@H](C)O)C(=O)N1CCC[C@H]1C(=O)N[C@@H](CO)C(=O)N[C@@H](CO)C(=O)N[C@H](C(=O)N[C@@H](CC(N)=O)C(=O)N[C@H](C(=O)NCC(=O)N1CCC[C@H]1C(=O)N[C@@H](CC(N)=O)C(=O)N[C@H](C(=O)N[C@@H](Cc1ccc(O)cc1)C(N)=O)[C@@H](C)O)C(C)C)[C@@H](C)O, also called compound 98)
5 | 215 pM | 59.2 | 12.7 nM | K([AEEA-γGlu-C20 diacid])CNTATCATQRLARFLRHSSPNFGAIPSSTNVGSNTY-NH2 (disulfide 2-7; N-terminus assumed; SMILES CC[C@H](C)[C@H](NC(=O)[C@H](C)NC(=O)CNC(=O)[C@H](Cc1ccccc1)NC(=O)[C@H](CC(N)=O)NC(=O)[C@@H]1CCCN1C(=O)[C@H](CO)NC(=O)[C@H](CO)NC(=O)[C@H](Cc1c[nH]cn1)NC(=O)[C@H](CCCNC(=N)N)NC(=O)[C@H](CC(C)C)NC(=O)[C@H](Cc1ccccc1)NC(=O)[C@H](CCCNC(=N)N)NC(=O)[C@H](C)NC(=O)[C@H](CC(C)C)NC(=O)[C@H](CCCNC(=N)N)NC(=O)[C@H](CCC(N)=O)NC(=O)[C@@H](NC(=O)[C@H](C)NC(=O)[C@@H]1CSSC[C@H](NC(=O)[C@@H](N)CCCCNC(=O)COCCOCCNC(=O)CC[C@H](NC(=O)CCCCCCCCCCCCCCCCCCC(=O)O)C(=O)O)C(=O)N[C@@H](CC(N)=O)C(=O)N[C@@H]([C@@H](C)O)C(=O)N[C@@H](C)C(=O)N[C@@H]([C@@H](C)O)C(=O)N1)[C@@H](C)O)C(=O)N1CCC[C@H]1C(=O)N[C@@H](CO)C(=O)N[C@@H](CO)C(=O)N[C@H](C(=O)N[C@@H](CC(N)=O)C(=O)N[C@H](C(=O)NCC(=O)N[C@@H](CO)C(=O)N[C@@H](CC(N)=O)C(=O)N[C@H](C(=O)N[C@@H](Cc1ccc(O)cc1)C(N)=O)[C@@H](C)O)C(C)C)[C@@H](C)O, also called compound 82)
6 | 356 pM | 33 | 11.8 nM | K([AEEA-AEEA-γGlu-C20 diacid])CNTATCATQRLANFLRHSSPNFGAIPSSTNVGHNTY-NH2 (disulfide 2-7; N-terminus assumed; SMILES CC[C@H](C)[C@H](NC(=O)[C@H](C)NC(=O)CNC(=O)[C@H](Cc1ccccc1)NC(=O)[C@H](CC(N)=O)NC(=O)[C@@H]1CCCN1C(=O)[C@H](CO)NC(=O)[C@H](CO)NC(=O)[C@H](Cc1c[nH]cn1)NC(=O)[C@H](CCCNC(=N)N)NC(=O)[C@H](CC(C)C)NC(=O)[C@H](Cc1ccccc1)NC(=O)[C@H](CC(N)=O)NC(=O)[C@H](C)NC(=O)[C@H](CC(C)C)NC(=O)[C@H](CCCNC(=N)N)NC(=O)[C@H](CCC(N)=O)NC(=O)[C@@H](NC(=O)[C@H](C)NC(=O)[C@@H]1CSSC[C@H](NC(=O)[C@@H](N)CCCCNC(=O)COCCOCCNC(=O)COCCOCCNC(=O)CC[C@H](NC(=O)CCCCCCCCCCCCCCCCCCC(=O)O)C(=O)O)C(=O)N[C@@H](CC(N)=O)C(=O)N[C@@H]([C@@H](C)O)C(=O)N[C@@H](C)C(=O)N[C@@H]([C@@H](C)O)C(=O)N1)[C@@H](C)O)C(=O)N1CCC[C@H]1C(=O)N[C@@H](CO)C(=O)N[C@@H](CO)C(=O)N[C@H](C(=O)N[C@@H](CC(N)=O)C(=O)N[C@H](C(=O)NCC(=O)N[C@@H](Cc1c[nH]cn1)C(=O)N[C@@H](CC(N)=O)C(=O)N[C@H](C(=O)N[C@@H](Cc1ccc(O)cc1)C(N)=O)[C@@H](C)O)C(C)C)[C@@H](C)O, also called compound 97)
